Data taken from paper PMC6995776 (Journal of molecular biology, 2019).

Legend:
Assay in all cases: ITC
[1] = target: T1, TbPRMT1 ENZ-PRO complex (wild type) (Trypanosoma brucei, UniProt Q4GYA9 1-345)
[2] = target: TbPRMT1 ENZ-Δ31PRO complex (Trypanosoma brucei, UniProt Q4GYA9 1-345)
[3] = target: TbPRMT1 ENZ-Δ45PRO complex (Trypanosoma brucei, UniProt Q4GYA9 1-345)
[4] = target: TbPRMT1 ENZ-Δ21PRO complex (Trypanosoma brucei, UniProt Q4GYA9 1-345)
[5] = target: T1, TbPRMT1 ENZ-PRO complex (wild type); remark: listed apart in the source

B1: Maltose Binding Protein (MBP)-fused TbRGG1 (natural protein)
chain: MVCSTICLFQRGQWGNEGSRGDQRNYDNRGGRGEWGDRGGQRGDNQRDYGDQRNYDNRGGRGEWGDRGGQRGDNQRDYGDQRNYDNRGGRGEWGDRGGQRGDNQRDYGDQRNYDNRGGRGEWGDRGGQRGDNQRDYGDQRNYDNRGGRGEWGDRGGQRGDNQRDYGDQRNYDNRGGRGEWGDRGGQRGDNQRNYDNRGGRGEWGDRGGQRGGNQRDNSNQFGYRNERDGGIGRQRSARDNFGAHDNRASDERGSTDPAVGEVFDEQAAKILYELKRRFKSSKTGKERRDVQREARRIVRRARVDPSTQDEKSVTLLLNCAATFRCYPHTEGIKQATEWMRKNIDGLSPQNVALFTNAIGALSVVDSDTILINEISPAVEACYGQMNPVELVMTLQAFQRGRITENEDLQVSLLQQLVTCVPQMPAPQLSTLAGVLVDTPLRKRDEATWQEIAKTVVSKAASGAENMHSREVITLLKATPRLGVPEDHSFHLVDRAIATVGFHTDEQIGELLEAVSYYRDPQKTCGRELNEKLDKLVDALWARLQKVAPFADAASVTTIMRAAHRSGVDVPRDIVSTLVQAVMRELRYHRFTFRRVASLSEALALQKVPAKELLVMLGDYCIGKRPPREERGENTPVDDHNSGIEERMDIYARFLGDLTKARIALENAHSSNAGNGEPGSSVSQILAQRLEDSVGSAPPRELLKSVRAICTAADDCPFRNRANDGKIIALSEQRIAKEGASFMEGVRKTTMENFLSAVSGIPQAQKVVEVLSHQTR
Q: How did the “stoichiometry N” value [1] turn out when B1 was run?
A: The value was 1.

Q: And the Kd [2]?
A: Its Kd is 86 µM.

Q: What about the Kd [3] of the same binder?
A: Its Kd is 160 µM.

Q: And the Kd [4]?
A: Its Kd is 36 µM.

Q: And the Kd [5]?
A: Its Kd is 9 µM.
